Target: NPY Y1 receptor
Test: in vitro NPY Y1 receptor binding assay; tracer and cells not stated

Chain of NPY Y1 receptor (P25929 whole entry): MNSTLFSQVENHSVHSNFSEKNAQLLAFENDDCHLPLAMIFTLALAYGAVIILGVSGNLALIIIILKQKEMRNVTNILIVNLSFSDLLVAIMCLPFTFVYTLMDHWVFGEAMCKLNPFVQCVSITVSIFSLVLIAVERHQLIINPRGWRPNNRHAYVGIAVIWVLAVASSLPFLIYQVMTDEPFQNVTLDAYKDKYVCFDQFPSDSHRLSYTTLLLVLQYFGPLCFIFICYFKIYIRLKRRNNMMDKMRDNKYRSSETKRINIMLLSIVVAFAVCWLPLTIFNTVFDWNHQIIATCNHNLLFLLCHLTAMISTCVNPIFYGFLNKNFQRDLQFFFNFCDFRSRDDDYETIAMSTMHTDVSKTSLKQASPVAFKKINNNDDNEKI

IC50: 1.09 nM
Substance: NPY(human, rat) control (from UniProt P01303 29-64) (peptide)

Reference: patent US20090099074A1, “MODULATING FOOD INTAKE” (CONJUCHEM BIOTECHNOLOGIES INC., priority 2007, published 2009)
